Test results from US10287569B2, “Enzyme for biosynthesis of isoprene and isopentenyl, and mutant thereof” (INSTITUTE OF MICROBIOLOGY, CHINESE ACADEMY OF SCIENCES, priority 2016, dated 2019).
Numbering of substitutions follows the chain as printed. Names may count otherwise.

T1: alkaliphilic Bacillus sp. N16-5 IspH protein, wild type, SEQ ID NO: 2 (Salipaludibacillus agaradhaerens, UniProt A0A9Q4B1R3)
T1 sequence (A0A9Q4B1R3 1-318): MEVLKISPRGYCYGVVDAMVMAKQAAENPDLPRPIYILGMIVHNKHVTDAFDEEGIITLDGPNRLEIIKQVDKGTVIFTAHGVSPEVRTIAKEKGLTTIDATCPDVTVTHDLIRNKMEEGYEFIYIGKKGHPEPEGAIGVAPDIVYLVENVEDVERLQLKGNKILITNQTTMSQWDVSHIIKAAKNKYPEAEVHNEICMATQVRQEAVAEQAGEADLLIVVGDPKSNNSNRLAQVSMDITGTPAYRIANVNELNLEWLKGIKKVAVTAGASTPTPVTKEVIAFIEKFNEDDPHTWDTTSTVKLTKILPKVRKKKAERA

B1: wild-type IspH: IspH protein from alkaliphilic Bacillus sp. N16-5, amino acid sequence SEQ ID NO: 2 (protein)
chain: T1 sequence (A0A9Q4B1R3 1-318)
modifications: Bacillus sp. N16-5
B2: IspH-E133Q: IspH mutant, glutamic acid to glutamine at position 133 of SEQ ID NO: 2 (SEQ ID NO: 4) (protein)
chain: T1 sequence (A0A9Q4B1R3 1-318) with E133Q
modifications: Mutant protein E133Q

Assays:
[1] = system: plant-derived isoprene synthase (IspS; EC 4.2.3.27); conditions: DMAPP as substrate to produce isoprene; background art; cited from earlier work
[2] = biological target: T1, alkaliphilic Bacillus sp. N16-5 IspH protein, wild type, SEQ ID NO: 2; experiment: Kinetic parameters of the enzymatic reaction converting DMAPP to isoamylene by wild-type IspH protein; type: biochemical; conditions: DMAPP as substrate to produce isoamylene; DMAPP 0-1.0 mM; pH 7.8, 37° C., 1 mM NADPH, ferredoxin/ferredoxin-NADP+ reductase, anaerobic
[3] = In vitro activity assay using DMAPP as a substrate (headspace gas GC-MS, kinetic parameters); type: biochemical; conditions: 1 mM DMAPP, 0.5 μM protein, 37° C. 1 h
Protocol: (§1) Under anaerobic conditions, in a sealed 5 ml chromatotube, IspH protein and its mutants were determined for their activity, wherein the reaction system comprised: 150 mM NaCl, 20 mM Tris-HCl (pH 7.8), 2 mM DTT, 1 mM NADPH, 1 mM DMAPP, 20 μM ferredoxin, 5 μM ferredoxin-NADP^+ reductase, and 0.5 μM IspH protein or its mutants (H131N and E133Q) obtained above; the total reaction volume was 500 μl; and the reaction condition was incubation at 37° C. for 1 h.
After the reaction, the headspace gas in the chromatotube was collected, and was subjected to gas chromatography-mass spectrometry (GC-MS).
In order to determine the kinetic parameters of the wild-type IspH protein, DMAPP at different concentrations (0, 0.1, 0.2, 0.3, 0.4, 0.5, 1.0 mM) was used to repeat the experiment.

[4] = In vitro activity assay using IPP as a substrate; type: biochemical
Protocol: as §1
In addition, IPP was used as a substrate to repeat the experiment.

[5] = In vitro activity assay using HMBPP as a substrate (headspace gas GC-MS); type: biochemical; conditions: for Production of 2-methyl-2-butene or not / Production of 3-methyl-1-butene or not / Isoprene produced in the reaction system: 1 mM HMBPP, 0.5 μM protein, 37° C. 1 h, headspace gas; for Isoprene produced in the reaction system: ferredoxin, FNR, NADPH, anaerobic
Protocol: as §1, with “HMBPP,” for “DMAPP,”
After the reaction, the headspace gas in the chromatotube was collected, and was subjected to gas chromatography-mass spectrometry (GC-MS). In brief, the gas was analyzed by Agilent Technologies 7890B GG/5977A MSD equipped with Agilent HP-PLOT Al2O3/S GC column (25 m, 0.32 mm, 8.00 μm, 7 inch cage), wherein He gas was used as a carrier gas at a flow rate of 2 ml/min. Later, the experimental data of the test sample (peak retention time, peak area, mass spectrogram, etc.) was compared with the experimental data of the standard substance (isoprene, 3-methyl-1-butene and 2-methyl-2-butene) to identify the gas components and perform quantitative analysis.

[6] = Acid treatment of the reaction solution to determine DMAPP (isoprene in headspace gas by GC-MS); type: biochemical; conditions: reaction solution of the HMBPP assay, 8M H2SO4, 37° C. 30 min; indicates DMAPP
Protocol: as §1, with “HMBPP,” for “DMAPP,”
In addition, after the reaction, the reaction solution in the chromatotube was also analyzed to determine whether IPP and DMAPP were produced. Since DMAPP can spontaneously produce isoprene under acidic conditions, the amount of DMAPP in the reaction solution can be determined by determining the amount of isoprene produced in the reaction solution under acidic conditions. In brief, under anaerobic conditions, 50 μL reaction solution was put in another 5 ml chromatotube, and diluted with cold water to a volume of 500 μL, and an equal volume of 8M H2SO4 was added; then, the chromatotube was sealed immediately, and incubated at 37° C. for 30 min. After the incubation, the amount of isoprene in the headspace gas was determined by the above-mentioned GC-MS method, to determine whether the reaction solution contained DMAPP or not.

| Molecule | Km value [1] | maximum reaction activity [2] | conversion of DMAPP to isoamylene (2-methyl-2-butene and 3-methyl-1-butene) [3] | catalytic activity on IPP [4] | Production of 2-methyl-2-butene or not [5] | Production of 3-methyl-1-butene or not [5] | Isoprene produced in the reaction system [5] [μg L^−1 OD^−1] | activity of converting HMBPP to isoamylene directly ([5]; headspace gas in different phases of the HMBPP assay) | products formed from HMBPP as a substrate (isoprene, isoamylene, IPP, DMAPP) ([5]; summary of the HMBPP assay) | isoprene produced by treating the reaction solution with acid [6] [μg L^−1 OD^−1] |
| --- | --- | --- | --- | --- | --- | --- | --- | --- | --- | --- |
| CC(C)=CCOP(=O)(O)OP(=O)(O)O [DMAPP, dimethylallyl pyrophosphate] | reaches the level of mM | about 6.2 nmol min^−1 mg^−1 | – | – | – | – | – | – | – | – |
| B1 | – | – | produce isoamylene | none | yes | yes | 104.4 | does not have the activity of converting HMBPP to isoamylene directly | can use HMBPP as a substrate to produce isoprene, isoamylene, IPP and DMAPP | 696.3 |
| B2 | – | – | – | – | no | no | 106.4 | – | – | 6.1 |
